Patent publication US20060257397A1 (CRUCELL HOLLAND B V, published 2006)
Numbering of substitutions follows the chain as printed.

T1: murine CD1d (mouse, UniProt P11609 22-336)
T1 construct: whole, on cells; also called mouse thymocytes
T1 sequence (looked up): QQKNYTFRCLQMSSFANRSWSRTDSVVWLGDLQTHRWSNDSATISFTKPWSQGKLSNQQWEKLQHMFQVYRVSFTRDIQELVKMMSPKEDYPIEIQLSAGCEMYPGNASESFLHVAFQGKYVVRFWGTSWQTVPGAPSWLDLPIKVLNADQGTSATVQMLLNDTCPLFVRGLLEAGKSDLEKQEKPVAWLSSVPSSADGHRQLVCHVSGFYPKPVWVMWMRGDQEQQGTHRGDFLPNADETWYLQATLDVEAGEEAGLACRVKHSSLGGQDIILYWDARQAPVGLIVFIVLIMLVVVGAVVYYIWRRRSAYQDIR

T2: human CD1d (human, UniProt P15813 20-335)
T2 construct: whole, on cells; also called C1R-CD1d; CR1-CD1d
T2 sequence (looked up): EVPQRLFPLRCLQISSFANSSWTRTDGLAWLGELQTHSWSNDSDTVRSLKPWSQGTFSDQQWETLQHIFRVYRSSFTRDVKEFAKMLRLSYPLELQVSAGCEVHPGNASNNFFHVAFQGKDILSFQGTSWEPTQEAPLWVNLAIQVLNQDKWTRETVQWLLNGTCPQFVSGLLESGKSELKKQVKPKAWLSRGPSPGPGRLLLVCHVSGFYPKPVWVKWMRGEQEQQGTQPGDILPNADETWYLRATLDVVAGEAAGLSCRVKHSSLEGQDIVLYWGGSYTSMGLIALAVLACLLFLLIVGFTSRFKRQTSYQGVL

T3: human CD1c (human, UniProt P29017 18-333)
T3 construct: whole, on cells; also called C1R-CD1c; CR1-CD1c
T3 sequence (looked up): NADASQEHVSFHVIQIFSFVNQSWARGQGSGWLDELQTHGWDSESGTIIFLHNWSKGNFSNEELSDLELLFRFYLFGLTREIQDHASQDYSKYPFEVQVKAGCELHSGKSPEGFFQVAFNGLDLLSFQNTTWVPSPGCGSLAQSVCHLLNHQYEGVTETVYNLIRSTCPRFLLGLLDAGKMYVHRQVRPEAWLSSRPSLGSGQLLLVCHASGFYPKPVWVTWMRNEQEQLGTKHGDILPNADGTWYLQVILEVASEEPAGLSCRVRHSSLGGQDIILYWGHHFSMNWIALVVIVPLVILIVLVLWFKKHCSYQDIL

B1: human anti-human CD1a monoclonal antibody CR2113 (antibody, human IgG1, kappa, V domains shown)
VH: QVQLQESGAGLLKPSETLSLTCAVYGGSFSGYYWSWIRQPPGKGLEWIGYIYYSGSTNYNPSLKSRVTISVDTSKNQFSLKLSSVTAADTAVYYCAKAPYMMYFDSWGQGTLVTVSS
VL: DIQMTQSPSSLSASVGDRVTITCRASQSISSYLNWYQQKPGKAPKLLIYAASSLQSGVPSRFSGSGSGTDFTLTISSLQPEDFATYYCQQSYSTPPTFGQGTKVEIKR
notes: Fully human IgG1 kappa made from scFv SC02-113, expressed in 293T cells; Used unlabeled, biotinylated or Alexa488-labeled depending on the assay; also called 02-113
B2: human anti-human CD1a monoclonal antibody CR2114 (antibody, human IgG1, kappa, V domains shown)
VH: EVQLVESGGGLVQPGGSLRLSCAASGFTFSSYSMNWVRQAPGKGLEWVSYISSSSSTIYYADSVKGRFTISRDNAKNSLYLQMNSLRDEDTAVYYCAKETWWQSFDYWGQGTLVTVSS
VL: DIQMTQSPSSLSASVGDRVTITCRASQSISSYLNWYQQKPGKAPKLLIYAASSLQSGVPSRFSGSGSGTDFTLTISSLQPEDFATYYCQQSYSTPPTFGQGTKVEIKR
notes: Fully human IgG1 kappa made from scFv SC02-114; unlabeled or biotinylated; also called 02-114
B3: human anti-human CD1a monoclonal antibody CR2115 (antibody, human IgG1, V domains shown)
VH: QVQLVQSGAEAKKPGASVKVSCKASGYTFTGYYMHWVRQAPGQGLEWMGWISAYNGNTNYAQKLQGRVTMTTDTSTSTAYMELRSLRSDDTAVYYCARSQMPSYFDYWGQGTLVTVSS
VL: SSELTQDPAVSVALGQTVRITCQGDSLRSYYASWYQQKPGQAPVLVIYGKNNRPSGIPDRFSGSSSGNTASLTITGAQAEDEADYYCNSRDSSGNHVVFGGGTKLTVLG
notes: Fully human IgG1 lambda made from scFv SC02-115; also called 02-115
B4: human anti-human CD1a monoclonal antibody CR2117 (antibody, human IgG1, kappa, V domains shown)
VH: EVQLVESGGGLVHPGGSLRLSCAGSGFTFSSYAMHWVRQAPGKGLEWVSAIGTGGGTYYADSVKGRFTISRDNAKNSLYLQMNSLRAEDTAVYYCARSTPWFSFDYWGQGTLVTVSS
VL: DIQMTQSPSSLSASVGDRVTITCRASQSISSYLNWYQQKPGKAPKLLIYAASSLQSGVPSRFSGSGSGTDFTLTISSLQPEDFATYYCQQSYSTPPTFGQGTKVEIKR
notes: Fully human IgG1 kappa made from scFv SC02-117; unlabeled or biotinylated; also called 02-117
B5: human anti-human CD1a monoclonal antibody CR2118 (antibody, human IgG1, kappa, V domains shown)
VH: B4 VH with G52S, T99A, P100W, F102L, Y106S
VL: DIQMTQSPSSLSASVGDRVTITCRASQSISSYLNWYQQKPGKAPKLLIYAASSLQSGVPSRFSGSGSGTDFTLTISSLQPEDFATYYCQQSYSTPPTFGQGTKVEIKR
notes: Fully human IgG1 kappa made from scFv SC02-118; unlabeled or biotinylated; also called 02-118

Legend:
human CD1b = biological target: T4, human CD1b (human, UniProt P29016 18-333); assay: flow cytometry on C1R-CD1b transfectant
T4 construct: whole, on cells; also called C1R-CD1b; CR1-CD1b
Protocol: (§1) The human anti-CD1a IgG1 antibodies were validated for their ability to bind to CD1a transfected cell lines essentially as described for scFvs (see Example 3). The purified anti-CD1a antibodies were diluted to various concentrations (depicted in the figures) and detected with mouse anti-human IgGκ labeled with FITC or FITC-labeled streptavidin in the case of biotinylated human anti-CD1a antibodies. In addition to the cell lines C1R-CD1a and C1R mock transfected described in Example 3, the cell lines C1R-CD1b , C1R-CD1c , C1R-CD1d and B16-CD1a and B16 mock transfected were tested. Each staining was repeated three times and compared to the negative control irrelevant isotype control antibody called CR2027 using the Kolmogorov-Simov test. To calculate K-S statistics, an overlay of histograms of isotype control antibody and anti-CD1a antibody was made. The log shift between the peaks of the histograms was determined and used to calculate the D-value. The greater the log shift of the anti-CD1a antibody response peak from the isotype control antibody response peak, the larger the D-value.
(§2) No specific staining of any of the six human anti-CD1a monoclonal antibodies was detected on the C1R-CD1b or C1R-CD1d transfectants (see FIG. 4). Slight, but significant, staining (p<0.05) was detected for the two antibodies CR2114 and CR2117 on C1R-CD1c transfectants (see FIG. 4). […] In addition, staining was also carried out on freshly prepared mouse thymocytes, which express murine […] at low levels.

human CD1a [1] = biological target: T5, human CD1a (human, UniProt P06126 17-327); assay: flow cytometry on B16-CD1a transfectants, biotinylated antibody detected with FITC-labeled streptavidin; D-value versus isotype control CR2027
T5 construct: whole, on cells; also called C1R-CD1a; CR1-CD1a
Protocol: as §1
(§3) Binding curves were generated for the antibodies CR2113, CR2114, CR2117 and CR2118 by measuring binding on B16-CD1a transfected cells with FACS as above using the concentrations of antibody ranging from 0.01 to 10 μg/ml. […]

murine CD1d [2] = biological target: T1, murine CD1d; assay: flow cytometry on freshly prepared mouse thymocytes
human CD1a [3] = biological target: T5, human CD1a; assay: competition flow cytometry on B16-CD1a cells: unlabeled antibody for 30 min, then biotin-labeled CR2113 at 2.5 µg/ml, FITC-streptavidin
Protocol: (§4) B16 mouse melanoma cells expressing human CD1a were stained with unlabeled CR2113, CR2114, CR2117, CR2118 or the negative control CR2027 at different concentrations (0.1, 0.3, 1, 3, 10, 30, 50, 100 μg/ml) for 30 minutes and then stained with one of the above antibodies labeled with biotin as described above for five minutes at a concentration of 2.5 μg/ml. Detection was by FITC-labeled streptavidin incubated for 20 minutes. Furthermore, staining was performed as described above (see Example 3). Each staining was done three successive times and the D-value calculated with K-S statistics (see above). The staining of unlabeled control antibody CR2027 is shown by the dotted line staining using the test antibody is depicted with a solid line. CR2113 was able to compete with itself in a dose dependent manner, however none of the other antibodies could compete with biotinylated CR2113 for binding (see FIG. 6A). […] In contrast, unlabeled CR2113 was able to compete for binding of CR2114 (see FIG. 6B), CR2117 (see FIG. 6C) and CR2118 (see FIG. 6D) to B16-CD1a transfectants in a concentration dependent manner. Neither CR2117 nor CR2118 was able to compete with CR2114 for binding to CD1a. This could be due to sub-optimal affinity.

human CD1a [4] = biological target: T5, human CD1a; assay: competition flow cytometry on B16-CD1a cells: unlabeled antibody for 30 min, then biotin-labeled CR2114 at 2.5 µg/ml, FITC-streptavidin
Protocol: as §4

human CD1d = biological target: T2, human CD1d; assay: flow cytometry on C1R-CD1d transfectant
Protocol: as §1, §2

human CD1a [5] = biological target: T5, human CD1a; assay: competition flow cytometry on B16-CD1a cells: unlabeled antibody for 30 min, then biotin-labeled CR2118 at 2.5 µg/ml, FITC-streptavidin
Protocol: as §4

murine CD1a = biological target: T6, murine CD1a (mouse); assay: flow cytometry on mouse thymocytes, K-S statistics against isotype control
T6 construct: whole, on cells; no such UniProt entry is known to me (mice are known to carry only CD1d genes); also called mouse thymocytes
Protocol: as §1, §2

murine CD1d [6] = biological target: T1, murine CD1d; assay: as above
Protocol: as §1, §2

human CD1c = biological target: T3, human CD1c; assay: flow cytometry on C1R-CD1c transfectant
Protocol: as §1
No specific staining of any of the six human anti-CD1a monoclonal antibodies was detected on the C1R-CD1b or C1R-CD1d transfectants (see FIG. 4). Slight, but significant, staining (p<0.05) was detected for the two antibodies CR2114 and CR2117 on C1R-CD1c transfectants (see FIG. 4). […]

human CD1a [7] = biological target: T5, human CD1a; assay: flow cytometry on B16-CD1a transfectants, unlabeled antibody detected with FITC-labeled mouse anti-human IgG kappa; D-value versus isotype control CR2027
Protocol: as §1, §3

T4 sequence (P29016 18-333): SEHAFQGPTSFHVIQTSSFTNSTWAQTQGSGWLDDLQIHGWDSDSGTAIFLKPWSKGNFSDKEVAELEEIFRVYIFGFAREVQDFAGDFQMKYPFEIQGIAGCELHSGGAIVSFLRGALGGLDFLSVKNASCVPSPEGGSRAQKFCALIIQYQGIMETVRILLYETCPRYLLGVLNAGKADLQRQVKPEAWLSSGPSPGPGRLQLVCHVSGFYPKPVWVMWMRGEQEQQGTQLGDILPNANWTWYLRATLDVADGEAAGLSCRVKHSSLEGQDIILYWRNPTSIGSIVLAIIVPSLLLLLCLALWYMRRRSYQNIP
T5 sequence (P06126 17-327): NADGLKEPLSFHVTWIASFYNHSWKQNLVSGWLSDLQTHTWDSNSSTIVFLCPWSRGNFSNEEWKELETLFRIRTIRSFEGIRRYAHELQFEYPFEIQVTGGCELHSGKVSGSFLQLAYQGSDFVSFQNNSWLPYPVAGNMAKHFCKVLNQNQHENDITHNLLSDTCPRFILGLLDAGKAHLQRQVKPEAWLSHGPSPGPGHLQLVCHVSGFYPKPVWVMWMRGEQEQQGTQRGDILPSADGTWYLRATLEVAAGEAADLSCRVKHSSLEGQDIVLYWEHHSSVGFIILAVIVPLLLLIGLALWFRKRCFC

| Binder | binding result (human CD1b) | EC50 (read off the curve) (human CD1a [1]) [microgr/ml] | binding result (murine CD1d [2]) | IC50 (read off the curve) (human CD1a [3]) [µg/mL] | IC50 (read off the curve) (human CD1a [4]) [µg/mL] | binding result (human CD1d) | IC50 (read off the curve) (human CD1a [5]) [µg/mL] | D-value (murine CD1a) | D-value (murine CD1d [6]) | binding result (human CD1c) | binding result (human CD1a [7]) |
| --- | --- | --- | --- | --- | --- | --- | --- | --- | --- | --- | --- |
| B1 | no binding | ~0.1 | no binding | ~3 | ~0.5 | no binding | ~0.6 | 0 | 0 | – | – |
| B2 | no binding | – | no binding | – | – | no binding | – | 0 | 0 | binds | – |
| B3 | no binding | – | no binding | – | – | no binding | – | – | 0 | – | – |
| B4 | no binding | ~2 | no binding | – | – | no binding | – | 0 | 0 | binds | – |
| B5 | no binding | – | no binding | – | – | no binding | – | 0 | 0 | – | binds |
